Consider two substances from publication PMC5854732.

Experiment [1] has as its target toposome (major yolk protein) purified from gonads of Paracentrotus lividus collected at the bloom phase (T0) (Paracentrotus lividus (endogenous in gonads)). Kind of experiment: SEC; gel filtration on Sephacryl S-400 HR (1.8 x 42 cm), Tris-HCl buffer pH 8.0 with 150 mM NaCl, 0.5 ml/min; size by comparison with standards (blue dextran 2,000 kDa, thyroglobulin 669 kDa, apoferritin 443 kDa); apparent molecular weight. (Size exclusion chromatography separates by hydrodynamic size, large species first.)

Experiment [2] addresses toposome (major yolk protein) purified from gonads of Paracentrotus lividus collected prior to the bloom (C) (Paracentrotus lividus (endogenous in gonads)). The description is as above.

Take “toposome (major yolk protein) purified from gonads of Paracentrotus lividus collected at the bloom phase (T0) (natural protein)”: in experiment [1], the stoichiometry N was determined as 3.
Take “toposome (major yolk protein) purified from gonads of Paracentrotus lividus collected prior to the bloom (C) (natural protein)”: the stoichiometry N in experiment [2] is 3.

Broadly, the stoichiometry N is a count of units in the complex or per binding partner.
